B1: IgG1 m610 (antibody, V domains shown)
VH: QVQLVQSGAEVKKPGASVKVSCKASGYTFTSYYMHWVRQAPGQGLEWMGIINPSGGSTSYAQKFQGRVTMTRDTSTSTVYMELSRLRSDDTAVYYCARDVQWLAYGMDVWGQGTTVTVSS
VL: not shown
notes: Whole IgG made from the Fab in 293 Free Style cells; also called IgG m610; IgG M610; not shown: rest of the IgG1 heavy chain constant region supplied by vector pDR12
B2: Fab m610 (Fab, V domains shown)
VH: B1 VH
VL: not shown
notes: also called clone M610
B3: IgG1 m606 (antibody, V domains shown)
VH: QVQLVESGAEVKKPGASVKVSCKASGYTFTSYYMHWVRQAPGQGLEWMGIINPSGGSTSYAQKFQGRVTMTRDTSTSTVYMELSSLRSEDTAVYYCARDRSIAAMGWFDHWGQGTLVTVSS
VL: DIQMTQSPSSVSASVGDRVTITCRASQGISSWLVWYQQKPGKAPKLLIYAASRLQSGVPSRFSGSGSGTLFTLIINNLQPEDFATYYCQQSNSVPLTFGGGTKVEIKR
notes: Whole IgG made from the Fab in 293 Free Style cells; also called IgG m606; m606 IgG; not shown: rest of the IgG1 heavy chain constant region supplied by vector pDR12
B4: Fab m606 (Fab, V domains shown)
VH: B3 VH
VL: B3 VL
notes: also called clone M606
B5: Fab m616 (Fab, V domains shown)
VH: SQVQVLVKPSQTLSLTCAISGDSVSSNSAAWNWIRQSPSRGLEWLGRTYYRSKWYNDYAVSVKSRITINPDTSKNQFSLQLNSVTPEDTAVYYCAREKGIGRGITGTTIPYNWFDPWGQGTLVTVSS
VL: SSYEITQPPSVSVTPGQTARITCSGDALPKHFAYWYQQKPGQAPVLIIYKDTERPSGIPERFSGSNSGNTATLTISRVEAGDEADYYCQVWDSSSGWVFGGGTKLTVQG
notes: Soluble Fab from E. coli periplasm; also called clone M616

What was measured:
[1] = target: T1, long IGF-II (IGF-II precursor) (human, UniProt P01344 25-180); test: ELISA, 50 ng long (precursor) IGF-II immobilized, OD405
T1 construct: Expressed in E. coli as His-tagged long IGF-II; also called long His6-IGF-II; His-tagged long IGF-II; not shown: His6 tag from the E. coli expression vector (pRSET)

mature IGF-II = target: T2, mature IGF-II (human, UniProt P01344 25-91); test: ELISA, 50 ng mature IGF-II immobilized, OD405
T2 construct: also called mature form of IGF-II
Method: Binding of the antibodies was measured by ELISA with 50 ng of either mature or precursor IGF-II immobilized on plates.

[2] = target: T1, long IGF-II (IGF-II precursor); test: Biacore 1000 SPR, IGF-II immobilized on CM5 chip, Fab injected, 1:1 Langmuir fit, 25° C.
Method: (§1) The binding of the Fabs was measured by using ELISA and Biacore surface plasmon resonance technology. […] Interactions between various Fabs and IGF-II were analyzed by surface plasmon resonance technology using a BIACORE 1000 instrument (Biacore, Pharmacia, Piscataway, N.J.). IGF-II was covalently immobilized onto a sensor chip (CM5) using carbodiimide coupling chemistry. A control reference surface was prepared for nonspecific binding and refractive index changes. For analysis of the kinetics of interactions, varying concentrations of Fabs were injected at flow rate of 30 μl/min using running buffer containing 150 mM NaCl, 3 mM EDTA, and 0.005% P-20 (pH 7.4). The association and dissociation phase data were fitted simultaneously to a 1:1 Langumir global model by using the nonlinear data analysis program BIAevaluation 3.2. All the experiments were performed at 25° C.
(§2) Biacore analysis was used to examine their binding affinities in more detail.

[3] = target: T1, long IGF-II (IGF-II precursor); test: Biacore SPR, Fab on long IGF-II
Method: as §1, §2

IGF-I = target: T3, IGF-I (UniProt P05019 49-118); test: ELISA, antigens immobilized on the plate, single Fab concentration not shown, OD405
T3 construct: also called insulin-like growth factor I

[4] = target: T1, long IGF-II (IGF-II precursor); test: ELISA, Fab on immobilized long IGF-II
[5] = target: T1, long IGF-II (IGF-II precursor); test: ELISA, long IGF-II immobilized at 50 ng/well, bound Fab detected with anti-FLAG-HRP, OD405
BSA = target: T4, BSA (Bos taurus, UniProt P02769); test: ELISA, antigens immobilized on the plate, single Fab concentration not shown, OD405
T4 construct: also called bovine serum albumin
T4 sequence (P02769 25-607 limits assumed): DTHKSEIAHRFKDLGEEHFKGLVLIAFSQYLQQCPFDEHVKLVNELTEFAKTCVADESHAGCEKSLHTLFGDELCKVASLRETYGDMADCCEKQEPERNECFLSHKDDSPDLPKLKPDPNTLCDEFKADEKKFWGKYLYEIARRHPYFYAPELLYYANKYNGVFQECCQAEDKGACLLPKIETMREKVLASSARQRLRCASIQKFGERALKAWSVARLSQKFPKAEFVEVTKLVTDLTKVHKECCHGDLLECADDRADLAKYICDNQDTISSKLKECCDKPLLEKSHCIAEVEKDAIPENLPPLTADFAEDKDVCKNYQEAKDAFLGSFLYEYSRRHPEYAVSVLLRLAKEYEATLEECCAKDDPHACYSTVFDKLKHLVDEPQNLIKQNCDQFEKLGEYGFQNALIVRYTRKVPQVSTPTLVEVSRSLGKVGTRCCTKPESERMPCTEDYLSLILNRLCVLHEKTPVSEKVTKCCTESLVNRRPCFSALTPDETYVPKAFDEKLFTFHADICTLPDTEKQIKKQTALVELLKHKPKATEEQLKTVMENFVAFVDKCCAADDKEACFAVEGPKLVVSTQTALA

Row | Binder | EC50 (read off the curve) [1] | EC50 (read off the curve) (mature IGF-II) | Kd [2] | koff [2] | kon [2] | Ka [3] | Kd [3] | koff [3] | kon [3] | binding result (IGF-I) | EC50 [4] | EC50 (read off the curve) [5] | binding result (BSA)
1 | B1 | ~0.4 nM | ~0.5 nM | – | – | – | – | – | – | – | – | – | – | –
2 | B2 | – | – | 0.9 nM | 0.00026 s⁻¹ | 290000 M⁻¹ s⁻¹ | 1.09e+09 M⁻¹ | 0.918 nM | 0.000262 s⁻¹ | 286000 M⁻¹ s⁻¹ | no binding | ~4 nM | – | –
3 | B3 | – | ~0.4 nM | – | – | – | – | – | – | – | – | – | – | –
4 | B4 | – | – | 0.7 nM | 0.00025 s⁻¹ | 350000 M⁻¹ s⁻¹ | 1.41e+09 M⁻¹ | 0.711 nM | – | 351000 M⁻¹ s⁻¹ | no binding | ~4 nM | ~6 nM | no binding
5 | B5 | – | – | – | – | – | – | – | – | – | no binding | ~4 nM | – | –
